# Measured values: US20080305116A1 (published 2008)
# T1: human CD154, soluble antigen (human, UniProt P29965 116-261, limits assumed)
# T1 construct: KinExA uses 'soluble antigen'; also called CD40 ligand; CD40L
# T1 sequence (looked up): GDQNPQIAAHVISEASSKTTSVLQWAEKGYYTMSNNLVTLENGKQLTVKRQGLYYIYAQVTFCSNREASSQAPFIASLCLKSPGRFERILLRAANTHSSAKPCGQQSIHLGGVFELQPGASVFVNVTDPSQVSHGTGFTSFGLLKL
# Columns and labels:
# [1] = target: T1, human CD154, soluble antigen; assay: KinExA solution-phase equilibrium, Fab with soluble antigen
# [2] = target: T1, human CD154, soluble antigen; assay: ELISA-based competitive binding assay; unlabeled Fab against biotin-labeled 5c8 Fab competitor
Binder,Kd [1],ELISA fold-improvement over wildtype [2]
"5c8 Fab Mutant #1 (heavy chain T30H) (Fab, V domains shown) VH: QVQLVQSGAEVVKPGASVKLSCKASGYIFHSYYMYWVKQAPGQGLEWIGEINPSNGDTNFNEKFKSKATLTVDKSASTAYMELSSLRSEDTAVYYCTRSDGRNDMDSWGQGTLVTVSS VL: DIVLTQSPATLSVSPGERATISCRASQRVSSSTYSYMHWYQQKPGQPPKLLIKYASNLESGVPARFSGSGSGTDFTLTISSVEPEDFATYYCQHSWEIPPTFGGGTKLEIK",0.307 nM,2.3 fold
"5c8 Fab Mutant #2 (heavy chain Y33W) (Fab, V domains shown) VH: QVQLVQSGAEVVKPGASVKLSCKASGYIFTSYWMYWVKQAPGQGLEWIGEINPSNGDTNFNEKFKSKATLTVDKSASTAYMELSSLRSEDTAVYYCTRSDGRNDMDSWGQGTLVTVSS VL: DIVLTQSPATLSVSPGERATISCRASQRVSSSTYSYMHWYQQKPGQPPKLLIKYASNLESGVPARFSGSGSGTDFTLTISSVEPEDFATYYCQHSWEIPPTFGGGTKLEIK",0.169 nM,7 fold
"5c8 Fab Mutant #3 (light chain Y36W) (Fab, V domains shown) VH: QVQLVQSGAEVVKPGASVKLSCKASGYIFTSYYMYWVKQAPGQGLEWIGEINPSNGDTNFNEKFKSKATLTVDKSASTAYMELSSLRSEDTAVYYCTRSDGRNDMDSWGQGTLVTVSS VL: DIVLTQSPATLSVSPGERATISCRASQRVSSSTYSWMHWYQQKPGQPPKLLIKYASNLESGVPARFSGSGSGTDFTLTISSVEPEDFATYYCQHSWEIPPTFGGGTKLEIK",0.42 nM,–
"5c8 Fab Mutant #4 (heavy chain S54N) (Fab, V domains shown) VH: QVQLVQSGAEVVKPGASVKLSCKASGYIFTSYYMYWVKQAPGQGLEWIGEINPNNGDTNFNEKFKSKATLTVDKSASTAYMELSSLRSEDTAVYYCTRSDGRNDMDSWGQGTLVTVSS VL: DIVLTQSPATLSVSPGERATISCRASQRVSSSTYSYMHWYQQKPGQPPKLLIKYASNLESGVPARFSGSGSGTDFTLTISSVEPEDFATYYCQHSWEIPPTFGGGTKLEIK",0.298 nM,2 fold
"5c8 Fab Mutant #5 (light chain T33W) (Fab, V domains shown) VH: QVQLVQSGAEVVKPGASVKLSCKASGYIFTSYYMYWVKQAPGQGLEWIGEINPSNGDTNFNEKFKSKATLTVDKSASTAYMELSSLRSEDTAVYYCTRSDGRNDMDSWGQGTLVTVSS VL: DIVLTQSPATLSVSPGERATISCRASQRVSSSWYSYMHWYQQKPGQPPKLLIKYASNLESGVPARFSGSGSGTDFTLTISSVEPEDFATYYCQHSWEIPPTFGGGTKLEIK",0.158 nM,5 fold
"5c8 Fab Mutant #6 (light chain S26D) (Fab, V domains shown, also called Ser26Asp) VH: QVQLVQSGAEVVKPGASVKLSCKASGYIFTSYYMYWVKQAPGQGLEWIGEINPSNGDTNFNEKFKSKATLTVDKSASTAYMELSSLRSEDTAVYYCTRSDGRNDMDSWGQGTLVTVSS VL: DIVLTQSPATLSVSPGERATISCRADQRVSSSTYSYMHWYQQKPGQPPKLLIKYASNLESGVPARFSGSGSGTDFTLTISSVEPEDFATYYCQHSWEIPPTFGGGTKLEIK",0.142 nM,2.6 fold
"5c8 Fab Mutant #7 (light chain Q27E) (Fab, V domains shown, also called Gln27Glu) VH: QVQLVQSGAEVVKPGASVKLSCKASGYIFTSYYMYWVKQAPGQGLEWIGEINPSNGDTNFNEKFKSKATLTVDKSASTAYMELSSLRSEDTAVYYCTRSDGRNDMDSWGQGTLVTVSS VL: DIVLTQSPATLSVSPGERATISCRASERVSSSTYSYMHWYQQKPGQPPKLLIKYASNLESGVPARFSGSGSGTDFTLTISSVEPEDFATYYCQHSWEIPPTFGGGTKLEIK",0.081 nM,6.3 fold
"5c8 Fab Mutant #8 (light chain S31V) (Fab, V domains shown) VH: QVQLVQSGAEVVKPGASVKLSCKASGYIFTSYYMYWVKQAPGQGLEWIGEINPSNGDTNFNEKFKSKATLTVDKSASTAYMELSSLRSEDTAVYYCTRSDGRNDMDSWGQGTLVTVSS VL: DIVLTQSPATLSVSPGERATISCRASQRVSVSTYSYMHWYQQKPGQPPKLLIKYASNLESGVPARFSGSGSGTDFTLTISSVEPEDFATYYCQHSWEIPPTFGGGTKLEIK",–,0.02 fold
"5c8 Fab Mutant #9 (light chain T33D) (Fab, V domains shown) VH: QVQLVQSGAEVVKPGASVKLSCKASGYIFTSYYMYWVKQAPGQGLEWIGEINPSNGDTNFNEKFKSKATLTVDKSASTAYMELSSLRSEDTAVYYCTRSDGRNDMDSWGQGTLVTVSS VL: DIVLTQSPATLSVSPGERATISCRASQRVSSSDYSYMHWYQQKPGQPPKLLIKYASNLESGVPARFSGSGSGTDFTLTISSVEPEDFATYYCQHSWEIPPTFGGGTKLEIK",–,0.22 fold
"5c8 Fab Mutant #10 (light chain Y54E) (Fab, V domains shown, also called Tyr54Glu) VH: QVQLVQSGAEVVKPGASVKLSCKASGYIFTSYYMYWVKQAPGQGLEWIGEINPSNGDTNFNEKFKSKATLTVDKSASTAYMELSSLRSEDTAVYYCTRSDGRNDMDSWGQGTLVTVSS VL: DIVLTQSPATLSVSPGERATISCRASQRVSSSTYSYMHWYQQKPGQPPKLLIKEASNLESGVPARFSGSGSGTDFTLTISSVEPEDFATYYCQHSWEIPPTFGGGTKLEIK",–,0.06 fold
"5c8 Fab Mutant #11 (heavy chain Y33F) (Fab, V domains shown) VH: QVQLVQSGAEVVKPGASVKLSCKASGYIFTSYFMYWVKQAPGQGLEWIGEINPSNGDTNFNEKFKSKATLTVDKSASTAYMELSSLRSEDTAVYYCTRSDGRNDMDSWGQGTLVTVSS VL: DIVLTQSPATLSVSPGERATISCRASQRVSSSTYSYMHWYQQKPGQPPKLLIKYASNLESGVPARFSGSGSGTDFTLTISSVEPEDFATYYCQHSWEIPPTFGGGTKLEIK",–,0.05 fold
"5c8 Fab Mutant #12 (heavy chain N59D) (Fab, V domains shown, also called Asn59Asp) VH: QVQLVQSGAEVVKPGASVKLSCKASGYIFTSYYMYWVKQAPGQGLEWIGEINPSNGDTDFNEKFKSKATLTVDKSASTAYMELSSLRSEDTAVYYCTRSDGRNDMDSWGQGTLVTVSS VL: DIVLTQSPATLSVSPGERATISCRASQRVSSSTYSYMHWYQQKPGQPPKLLIKYASNLESGVPARFSGSGSGTDFTLTISSVEPEDFATYYCQHSWEIPPTFGGGTKLEIK",–,0.13 fold
"5c8 Fab Mutant #13 (heavy chain N59L) (Fab, V domains shown, also called Asn59Leu) VH: QVQLVQSGAEVVKPGASVKLSCKASGYIFTSYYMYWVKQAPGQGLEWIGEINPSNGDTLFNEKFKSKATLTVDKSASTAYMELSSLRSEDTAVYYCTRSDGRNDMDSWGQGTLVTVSS VL: DIVLTQSPATLSVSPGERATISCRASQRVSSSTYSYMHWYQQKPGQPPKLLIKYASNLESGVPARFSGSGSGTDFTLTISSVEPEDFATYYCQHSWEIPPTFGGGTKLEIK",–,0.01 fold
"5c8 Fab Mutant #19 (heavy S54N; light S26D/Q27E) (Fab, V domains shown) VH: QVQLVQSGAEVVKPGASVKLSCKASGYIFTSYYMYWVKQAPGQGLEWIGEINPNNGDTNFNEKFKSKATLTVDKSASTAYMELSSLRSEDTAVYYCTRSDGRNDMDSWGQGTLVTVSS VL: DIVLTQSPATLSVSPGERATISCRADERVSSSTYSYMHWYQQKPGQPPKLLIKYASNLESGVPARFSGSGSGTDFTLTISSVEPEDFATYYCQHSWEIPPTFGGGTKLEIK",0.065 nM,–
"5c8 Fab Mutant #20 (heavy S54N; light S26D/Q27E/T33W) (Fab, V domains shown) VH: QVQLVQSGAEVVKPGASVKLSCKASGYIFTSYYMYWVKQAPGQGLEWIGEINPNNGDTNFNEKFKSKATLTVDKSASTAYMELSSLRSEDTAVYYCTRSDGRNDMDSWGQGTLVTVSS VL: DIVLTQSPATLSVSPGERATISCRADERVSSSWYSYMHWYQQKPGQPPKLLIKYASNLESGVPARFSGSGSGTDFTLTISSVEPEDFATYYCQHSWEIPPTFGGGTKLEIK",0.044 nM,–
"5c8 Fab Mutant #21 (heavy T30H/Y33W/S54N; light S26D/Q27E) (Fab, V domains shown) VH: QVQLVQSGAEVVKPGASVKLSCKASGYIFHSYWMYWVKQAPGQGLEWIGEINPNNGDTNFNEKFKSKATLTVDKSASTAYMELSSLRSEDTAVYYCTRSDGRNDMDSWGQGTLVTVSS VL: DIVLTQSPATLSVSPGERATISCRADERVSSSTYSYMHWYQQKPGQPPKLLIKYASNLESGVPARFSGSGSGTDFTLTISSVEPEDFATYYCQHSWEIPPTFGGGTKLEIK",0.101 nM,–
"5c8 Fab Mutant #22 (heavy T30H/Y33W/S54N; light S26D/Q27E/T33W) (Fab, V domains shown) VH: QVQLVQSGAEVVKPGASVKLSCKASGYIFHSYWMYWVKQAPGQGLEWIGEINPNNGDTNFNEKFKSKATLTVDKSASTAYMELSSLRSEDTAVYYCTRSDGRNDMDSWGQGTLVTVSS VL: DIVLTQSPATLSVSPGERATISCRADERVSSSWYSYMHWYQQKPGQPPKLLIKYASNLESGVPARFSGSGSGTDFTLTISSVEPEDFATYYCQHSWEIPPTFGGGTKLEIK",0.055 nM,–
"5c8 Fab Mutant #26 (heavy T30H/S54N; light S26D/Q27E/T33W) (Fab, V domains shown) VH: QVQLVQSGAEVVKPGASVKLSCKASGYIFHSYYMYWVKQAPGQGLEWIGEINPNNGDTNFNEKFKSKATLTVDKSASTAYMELSSLRSEDTAVYYCTRSDGRNDMDSWGQGTLVTVSS VL: DIVLTQSPATLSVSPGERATISCRADERVSSSWYSYMHWYQQKPGQPPKLLIKYASNLESGVPARFSGSGSGTDFTLTISSVEPEDFATYYCQHSWEIPPTFGGGTKLEIK",0.063 nM,–
"5c8 Fab Mutant #27 (heavy Y33W/S54N; light S26D/Q27E/T33W) (Fab, V domains shown) VH: QVQLVQSGAEVVKPGASVKLSCKASGYIFTSYWMYWVKQAPGQGLEWIGEINPNNGDTNFNEKFKSKATLTVDKSASTAYMELSSLRSEDTAVYYCTRSDGRNDMDSWGQGTLVTVSS VL: DIVLTQSPATLSVSPGERATISCRADERVSSSWYSYMHWYQQKPGQPPKLLIKYASNLESGVPARFSGSGSGTDFTLTISSVEPEDFATYYCQHSWEIPPTFGGGTKLEIK",0.052 nM,–
"5c8 Fab Mutant #28 (heavy Y33W/S54N; light S26D/Q27E) (Fab, V domains shown) VH: QVQLVQSGAEVVKPGASVKLSCKASGYIFTSYWMYWVKQAPGQGLEWIGEINPNNGDTNFNEKFKSKATLTVDKSASTAYMELSSLRSEDTAVYYCTRSDGRNDMDSWGQGTLVTVSS VL: DIVLTQSPATLSVSPGERATISCRADERVSSSTYSYMHWYQQKPGQPPKLLIKYASNLESGVPARFSGSGSGTDFTLTISSVEPEDFATYYCQHSWEIPPTFGGGTKLEIK",0.077 nM,–
